Experimental data reported in publication doi:10.1101/411223 (bioRxiv, 2018).

What was measured:
Kap114p (Δ899-956) = molecular target: T1, Kap114p (Δ899-956) (S. cerevisiae, UniProt P53067 1-1004, Δ899-956); experiment: ITC
T1 sequence (looked up): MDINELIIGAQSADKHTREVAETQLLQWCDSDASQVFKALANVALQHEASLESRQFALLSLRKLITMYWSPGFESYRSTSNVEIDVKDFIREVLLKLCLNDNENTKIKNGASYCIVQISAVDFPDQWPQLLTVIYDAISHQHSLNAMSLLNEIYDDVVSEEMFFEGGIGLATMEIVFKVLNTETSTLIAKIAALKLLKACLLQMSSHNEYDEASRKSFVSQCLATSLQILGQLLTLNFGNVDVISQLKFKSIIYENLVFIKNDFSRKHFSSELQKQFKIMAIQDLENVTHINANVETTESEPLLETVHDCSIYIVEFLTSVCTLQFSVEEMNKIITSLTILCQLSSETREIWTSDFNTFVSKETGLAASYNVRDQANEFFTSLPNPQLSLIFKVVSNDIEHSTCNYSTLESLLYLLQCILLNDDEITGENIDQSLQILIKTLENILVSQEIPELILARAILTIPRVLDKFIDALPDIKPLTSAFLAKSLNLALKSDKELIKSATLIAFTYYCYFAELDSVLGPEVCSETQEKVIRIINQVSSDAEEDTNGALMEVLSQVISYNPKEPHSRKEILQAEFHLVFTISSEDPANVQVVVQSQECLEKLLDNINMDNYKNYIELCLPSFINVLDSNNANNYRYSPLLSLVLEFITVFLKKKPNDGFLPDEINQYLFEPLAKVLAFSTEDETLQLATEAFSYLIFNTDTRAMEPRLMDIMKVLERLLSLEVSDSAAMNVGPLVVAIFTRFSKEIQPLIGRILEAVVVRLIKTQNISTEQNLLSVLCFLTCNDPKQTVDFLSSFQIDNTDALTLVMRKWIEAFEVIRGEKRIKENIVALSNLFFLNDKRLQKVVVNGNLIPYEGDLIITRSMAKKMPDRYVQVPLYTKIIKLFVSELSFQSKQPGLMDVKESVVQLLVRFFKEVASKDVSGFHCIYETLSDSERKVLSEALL

Kap121p = molecular target: T2, Kap121p (S. cerevisiae, UniProt P32337 1-1089); experiment: ITC
T2 sequence (looked up): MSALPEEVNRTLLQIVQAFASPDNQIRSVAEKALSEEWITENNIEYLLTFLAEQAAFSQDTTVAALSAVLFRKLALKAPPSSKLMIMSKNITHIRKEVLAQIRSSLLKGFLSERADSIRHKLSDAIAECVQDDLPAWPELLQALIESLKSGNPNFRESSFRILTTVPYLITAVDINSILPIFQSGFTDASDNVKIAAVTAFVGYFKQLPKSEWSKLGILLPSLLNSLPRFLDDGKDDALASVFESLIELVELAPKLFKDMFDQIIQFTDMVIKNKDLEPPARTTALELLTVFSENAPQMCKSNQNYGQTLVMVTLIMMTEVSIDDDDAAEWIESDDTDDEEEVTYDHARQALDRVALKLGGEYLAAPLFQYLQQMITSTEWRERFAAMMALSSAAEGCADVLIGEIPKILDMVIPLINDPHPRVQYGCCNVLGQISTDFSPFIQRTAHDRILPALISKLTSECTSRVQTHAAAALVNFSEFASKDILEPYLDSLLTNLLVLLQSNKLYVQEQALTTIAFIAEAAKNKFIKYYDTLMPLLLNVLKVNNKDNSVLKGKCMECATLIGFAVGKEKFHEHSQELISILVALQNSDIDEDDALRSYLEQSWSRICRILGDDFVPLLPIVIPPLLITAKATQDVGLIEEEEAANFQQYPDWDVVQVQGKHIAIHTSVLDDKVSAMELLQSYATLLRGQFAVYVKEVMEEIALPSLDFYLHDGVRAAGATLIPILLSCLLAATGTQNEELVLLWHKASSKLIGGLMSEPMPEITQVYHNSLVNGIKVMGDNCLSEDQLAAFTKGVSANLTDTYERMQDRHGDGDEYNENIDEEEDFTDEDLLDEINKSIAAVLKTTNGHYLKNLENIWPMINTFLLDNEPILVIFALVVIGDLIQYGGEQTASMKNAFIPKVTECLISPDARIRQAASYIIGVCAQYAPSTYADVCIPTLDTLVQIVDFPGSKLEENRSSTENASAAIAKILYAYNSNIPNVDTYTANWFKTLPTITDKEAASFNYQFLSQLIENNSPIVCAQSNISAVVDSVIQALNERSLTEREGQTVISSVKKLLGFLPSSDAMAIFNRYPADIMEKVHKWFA

AUC = molecular target: the molecule itself; experiment: AUC

binding result (Kap114p (Δ899-956)): binds
Kd (Kap121p): ~15 µM
B1: yTBP (61-240) (domain or fragment, S. cerevisiae, UniProt P13393 61-240, looked up)
chain: SGIVPTLQNIVATVTLGCRLDLKTVALHARNAEYNPKRFAAVIMRIREPKTTALIFASGKMVVTGAKSEDDSKLASRKYARIIQKIGFAAKFTDFKIQNIVGSCDVKFPIRLEGLAFSHGTFSSYEPELFPGLIYRMVKPKIVLLIFVSGKIVLTGAKQREEIYQAFEAIYPVLSEFRKM
stoichiometry N (AUC): 2
